Results published in patent US20230114801A1 (SYSTIMMUNE, published 2023).

Key:
Assay in all cases: BLI (Octet), binder on AHC sensor, 100 nM human antigen, 1:1 fit
[1] = molecular target: T1, human PD-L1 (human, UniProt Q9NZQ7 19-238)
T1 construct: Soluble antigen in Octet; bought; also called human PD-L1 (Acro PD1-H5229)

[2] = molecular target: T2, human CD3 (human, UniProt P07766 23-126; P04234 22-105)
T2 construct: also called His-tagged human CD3; human CD3 (Acro CDD-H52W1)

[3] = molecular target: T3, human 4-1BB (human, UniProt Q07011 24-186, limits assumed)
T3 construct: Soluble antigen in Octet; construct not described

[4] = molecular target: T4, human EGFR (human, UniProt P00533 25-645, limits assumed)
T4 construct: Soluble antigen in Octet; construct not described

B1: SI-75P6 (other)
chain 1: DVVMTQSPSTLSASVGDRVTINCQASESISSWLAWYQQKPGKAPKLLIYEASKLASGVPSRFSGSGSGTEFTLTISSLQPDDFATYYCQGYFYFISRTYVNSFGGGTKVEIKGGGGSGGGGSGGGGSGGGGSEVQLVESGGGLVQPGGSLRLSCAASGFTISTNAMSWVRQAPGKGLEWIGVITGRDITYYASWAKGRFTISRDNSKNTLYLQMNSLRAEDTAVYYCARDGGSSAITSNNIWGQGTLVTVSSGGGGSGGGGSQVQLQQSGPGLVKPSETLSITCTVSGFSLTNYGVHWIRQAPGKGLEWLGVIWSGGNTDYNTPFTSRFTITKDNSKNQVYFKLRSVRADDTAIYYCARALTYYDYEFAYWGQGTLVTVSSASTKGPSVFPLAPSSKSTSGGTAALGCLVKDYFPEPVTVSWNSGALTSGVHTFPAVLQSSGLYSLSSVVTVPSSSLGTQTYICNVNHKPSNTKVDKRVEPKSCDKTHTCPPCPAPEAAGGPSVFLFPPKPKDTLMISRTPEVTCVVVDVSHEDPEVKFNWYVDGVEVHNAKTKPREEQYNSTYRVVSVLTVLHQDWLNGKEYKCAVSNKALPAPIEKTISKAKGQPREPQVYTLPPSRDELTKNQVSLSCAVKGFYPSDIAVEWESNGQPENNYKTTPPVLDSDGSFFLVSKLTVDKSRWQQGNVFSCSVMHEALHNHYTQKSLSLSPGGGGGSGGGGSDVVMTQSPSSVSASVGDRVTITCQASQNIRTYLSWYQQKPGKAPKLLIYAAANLASGVPSRFSGSGSGTDFTLTISDLEPGDAATYYCQSTYLGTDYVGGAFGGGTKLTVLGGGGSGGGGSGGGGSGGGGSEVQLVESGGGLVQPGGSLRLSCTASGFTISSYHMQWVRQAPGKGLEYIGTISSGGNVYYASSARGRFTISRPSSKNTVDLQMNSLRAEDTAVYYCARDSGYSDPMWGQGTLVTVSS
chain 2: QSALTQPASVSGSPGQSITISCTGTSSDVGGYNFVSWYQQHPGKAPKLMIYDVSDRPSGVSDRFSGSKSGNTASLIISGLQADDEADYYCSSYGSSSTHVIFGGGTKVTVLGGGGSGGGGSGGGGSGGGGSQVQLQESGGGLVKPGGSLSLSCAASGFTFSSYWMSWVRQAPGKGLEWVANINRDGSASYYVDSVKGRFTISRDDAKNSLYLQMNSLRAEDTAVYYCARDRGVGYFDLWGRGTLVTVSSGGGGSGGGGSEIVLTQSPSTLSVSPGERATFSCRASQSIGTNIHWYQQKPGKPPRLLIKYASESISGIPDRFSGSGSGTEFTLTISSVQSEDFAVYYCQQNNNWPTTFGPGTKLTVLRTVAAPSVFIFPPSDEQLKSGTASVVCLLNNFYPREAKVQWKVDNALQSGNSQESVTEQDSKDSTYSLSSTLTLSKADYEKHKVYACEVTHQGLSSPVTKSFNRGECGGDKTHTCPPCPAPEAAGGPSVFLFPPKPKDTLMISRTPEVTCVVVDVSHEDPEVKFNWYVDGVEVHNAKTKPREEQYNSTYRVVSVLTVLHQDWLNGKEYKCAVSNKALPAPIEKTISKAKGQPREPQVYTLPPSRDELTKNQVSLWCLVKGFYPSDIAVEWESNGQPENNYKTTPPVLDSDGSFFLYSKLTVDKSRWQQGNVFSCSVMHEALHNRFTQKSLSLSPGGGGGSGGGGSDIQMTQSPSTLSASVGDRVTITCQASQSISSHLNWYQQKPGKAPKLLIYKASTLASGVPSRFSGSGSGTEFTLTISSLQPDDFATYYCQQGYSWGNVDNVFGGGTKVTVLGGGGSGGGGSGGGGSGGGGSEVQLLESGGGLVQPGGSLSLSCAASGFSFSSGYDMCWVRQAPGKGLEWIACIAAGSAGITYDANWAKGRFTISRDNSKNTLYLQMNSLRAEDTAVYYCARSAFSFDYAMDLWGQGTLVTVSS
notes: penta-miniGNC, IgG1 knobs-into-holes heterodimer; D1 αCD3, D2 αHER3, D3 αEGFR (Fab), D4 α4-1BB, D5 αPD-L1; also called penta-miniGNC (SI-75P6)
Kd [1]: 1.45 nM | Kd [2]: 36.2 nM | Kd [3]: 37.3 nM | Kd [4]: 5.56 nM
